From the Immune Epitope Database (IEDB)

Tests used:
HLA-A*11:01 = assay: IEDB peptide-MHC binding, purified MHC/competitive/radioactivity; filed as Kd, often an IC50 or EC50 that approximates it; ≥ and ≤ were set here for values at or beyond the usual limits of such assays; details: source organism: Vaccinia virus WR
HLA-B*07:02 = assay: as above; details: source organism: Vaccinia virus WR

Row | Sequence | Kd (HLA-A*11:01) | Kd (HLA-B*07:02)
1 | AFEFINSLLK | 470 nM | 
2 | LPRPDTRHL |  | 14 nM
3 | RPSTRNFFEL |  | 11 nM
